# Measurements from patent publication US20240228562A1, “NOVEL LIPOCALIN MUTEINS SPECIFIC FOR CONNECTIVE TISSUE GROWTH FACTOR (CTGF)” (PIERIS PHARMACEUTICALS GMBH, priority 2021, published 2024).
# Changes are numbered by the printed parent chain.
# B1: SEQ ID NO: 69: fusion protein comprising two CTGF-binding lipocalin muteins (protein)
# chain: QDSTSDLIPAPPLSKVPLQQNFQDNQFQGKWYVVGLAGNAILREDKQPAKMFATIYELKEDKSYDVTSVRFEAKSCSYTSKTFVPGSQPGEFTAGNIKSAPGQTSTLVRVVSTNYNQHAMVFFKHVSQNRETFVITLYGRTKELTSELKENFIRFSKSLGLPENHIVFPVPIDQCIDGGGGGSGGGGSGGGGSQDSTSDLIPAPPLSKVPLQQNFQDNQFQGKWYVVGLAGNYRLREDKDPSKMGATIYELKEDKSYDVTQVQFDDKKCLYVIETFVPGSQPGEFTLGAIKSYPGLTSQLVRVVSTNYNQHAMVFVKKVWPNLEYFQIVLYGRTKELTSELKENFIRFSKSLGLPENHIVFPVPIDQCIDG
# modifications: fusion protein
# B2: SEQ ID NO: 75: fusion protein comprising two CTGF-binding lipocalin muteins (protein)
# chain: B1 chain with S77K, S80I, N96Y, S127T, T132I
# modifications: fusion protein
# B3: SEQ ID NO: 72: fusion protein comprising two CTGF-binding lipocalin muteins (protein)
# chain: B1 chain with Q47Y, A73N, S77V, S80I, A94T, T132F
# modifications: fusion protein
# B4: SEQ ID NO: 62: fusion protein comprising two CTGF-binding lipocalin muteins (protein)
# chain: QDSTSDLIPAPPLSKVPLQQNFQDNQFQGKWYVVGRAGNNQLREDKSPPKMWATIYELKEDKSYDVTHVHFSTKKCRYIIDTFVPGSQPGEFTAGAIKSGPGLTSPLVRVVSTNYNQHAMVFFKWVTQNREWFTITLYGRTKELTSELKENFIRFSKSLGLPENHIVFPVPIDQCIDGGGGGSGGGGSGGGGSQDSTSDLIPAPPLSKVPLQQNFQDNQFQGKWYVVGWAGNVKLREDKQPQKMSATIYELKEDKSYDVTEVVFEQKKCHYIIKTFVPGSQPGEFTAGDIKSPPGYTSSLVRVVSTNYNQHAMVFFKKVSQNREFFWITLYGRTKELTSELKENFIRFSKSLGLPENHIVFPVPIDQCIDG
# modifications: fusion protein
# B5: SEQ ID NO: 70: fusion protein comprising two CTGF-binding lipocalin muteins (protein)
# chain: QDSTSDLIPAPPLSKVPLQQNFQDNQFQGKWYVVGWAGNVKLREDKQPQKMSATIYELKEDKSYDVTEVVFEQKKCHYIIKTFVPGSQPGEFTAGDIKSPPGYTSSLVRVVSTNYNQHAMVFFKKVSQNREFFWITLYGRTKELTSELKENFIRFSKSLGLPENHIVFPVPIDQCIDGGGGGSGGGGSGGGGSQDSTSDLIPAPPLSKVPLQQNFQDNQFQGKWYVVGLAGNAILREDKQPAKMFATIYELKEDKSYDVTSVRFEAKSCKYTIKTFVPGSQPGEFTAGYIKSAPGQTSTLVRVVSTNYNQHAMVFFKHVTQNREIFVITLYGRTKELTSELKENFIRFSKSLGLPENHIVFPVPIDQCIDG
# modifications: fusion protein
# B6: SEQ ID NO: 64: fusion protein comprising two CTGF-binding lipocalin muteins (protein)
# chain: QDSTSDLIPAPPLSKVPLQQNFQDNQFQGKWYVVGLAGNYRLREDKDPSKMGATIYELKEDKSYDVTQVQFDDKKCLYVIETFVPGSQPGEFTLGAIKSYPGLTSQLVRVVSTNYNQHAMVFVKKVWPNLEYFQIVLYGRTKELTSELKENFIRFSKSLGLPENHIVFPVPIDQCIDGGGGGSGGGGSGGGGSQDSTSDLIPAPPLSKVPLQQNFQDNQFQGKWYVVGLAGNAILREDKQPAKMFATIYELKEDKSYDVTSVRFEAKSCKYTIKTFVPGSQPGEFTAGYIKSAPGQTSTLVRVVSTNYNQHAMVFFKHVTQNREIFVITLYGRTKELTSELKENFIRFSKSLGLPENHIVFPVPIDQCIDG
# modifications: fusion protein
# B7: SEQ ID NO: 68: fusion protein comprising two CTGF-binding lipocalin muteins (protein)
# chain: QDSTSDLIPAPPLSKVPLQQNFQDNQFQGKWYVVGLAGNAILREDKQPAKMFATIYELKEDKSYDVTSVRFEAKSCSYTSKTFVPGSQPGEFTAGNIKSAPGQTSTLVRVVSTNYNQHAMVFFKHVSQNRETFVITLYGRTKELTSELKENFIRFSKSLGLPENHIVFPVPIDQCIDGGGGGSGGGGSGGGGSQDSTSDLIPAPPLSKVPLQQNFQDNQFQGKWYVVGWAGNVKLREDKQPQKMSATIYELKEDKSYDVTEVVFEQKKCHYIIKTFVPGSQPGEFTAGDIKSPPGYTSSLVRVVSTNYNQHAMVFFKKVSQNREFFWITLYGRTKELTSELKENFIRFSKSLGLPENHIVFPVPIDQCIDG
# modifications: fusion protein
# B8: SEQ ID NO: 71: fusion protein comprising two CTGF-binding lipocalin muteins (protein)
# chain: B7 chain with Q47Y, A73N, S77V, S80I, A94T, T132F
# modifications: fusion protein
# B9: SEQ ID NO: 73: fusion protein comprising two CTGF-binding lipocalin muteins (protein)
# chain: B7 chain with Q47Y, A73N, S77V, A94T, T132F
# modifications: fusion protein
# B10: SEQ ID NO: 63: fusion protein comprising two CTGF-binding lipocalin muteins (protein)
# chain: QDSTSDLIPAPPLSKVPLQQNFQDNQFQGKWYVVGRAGNNQLREDKSPPKMWATIYELKEDKSYDVTHVHFSTKKCRYIIDTFVPGSQPGEFTAGAIKSGPGLTSPLVRVVSTNYNQHAMVFFKWVTQNREWFTITLYGRTKELTSELKENFIRFSKSLGLPENHIVFPVPIDQCIDGGGGGSGGGGSGGGGSQDSTSDLIPAPPLSKVPLQQNFQDNQFQGKWYVVGLAGNAILREDKQPAKMFATIYELKEDKSYDVTSVRFEAKSCKYTIKTFVPGSQPGEFTAGYIKSAPGQTSTLVRVVSTNYNQHAMVFFKHVTQNREIFVITLYGRTKELTSELKENFIRFSKSLGLPENHIVFPVPIDQCIDG
# modifications: fusion protein
# Experiment: Thermal stability assessment by nanoDSC
# Assay type: physicochemical
# Conditions: 1 mg/mL in PBS, scan 25-100° C. at 1° C./min
# Description: To determine the melting temperatures (Tms) of the lipocalin muteins, which is a general indicator for folding stability, the CTGF specific muteins, at a protein concentration of 1 mg/mL in PBS (Gibco), were scanned (25-100° C.) at 1° C./min using a capillary nanoDSC instrument (CSC 6300, TA Instruments). […] Several unfolding events can contribute to the observed thermogram. In cases with multiple transitions, the one with the major unfolding energy best represents the overall protein fold and is reported. Muteins were produced as described in Example 3. SEQ ID NOs: 3, 7, 9, 25, and 29 were expressed using E. coli, the other muteins were expressed using CHO cells.
# The resulting maximum melting temperatures as well as the onset temperature of melting for exemplary lipocalin muteins and fusion proteins are listed in Table 3 below.
row,Molecule,ONSET MELTING [°C]
1,B1,57
2,B2,58
3,B3,62
4,B4,53
5,B5,55
6,B6,56
7,B7,61
8,B8,67
9,B9,71
10,B10,50

# Same assay, conditions: 1 mg/mL in PBS, scan 25-100° C. at 1° C./min, major transition
row,Molecule,TM [°C]
1,B1,64
2,B2,65
3,B3,66
4,B4,67
5,B5,73
6,B6,65
7,B7,72
8,B8,76
9,B9,75
10,B10,66
